From patent US20210355204A1 (XOMA TECHNOLOGY, published 2021) come the findings set out here.

Experiment [1] deals with T1, TGFβ3 (human, UniProt P10600 301-412).
T1 construct: Commercial recombinant protein; also called transforming growth factor beta 3
T1 sequence (looked up): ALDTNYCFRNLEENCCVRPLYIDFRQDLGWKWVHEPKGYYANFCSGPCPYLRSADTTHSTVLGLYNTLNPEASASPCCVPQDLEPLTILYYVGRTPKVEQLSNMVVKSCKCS
Nature of the experiment: SPR (Biacore 2000), TGFβ immobilised on CM1 chip, antibody injected. The protocol:
(§1) The chip surface was activated with four minute injections at 20 μL/minute of a freshly mixed 1:1 solution of 0.1M N-Hydroxysuccinimide (NHS) and 0.4M 1-Ethyl-3-(3-dimethylaminopropyl) carbodiimide hydrochloride (EDC). Following the activation injection a 0.1 ug/mL solution of TGFβ in acetate pH 4.0 was injected at 20 μL/minute for several minutes. […] Injections of TGFβ were performed as a series of 1 to 2 minute injections looking at immobilized level between each injection. The target immobilized density of each TGFβ ligand was 30 RU. After the TGFβ immobilization injections, 4 minutes of 1 M Ethanolamine hydrochloride-NaOH pH 8.5 was injected to block the surface.
(§2) Each of the antibodies was diluted in running buffer to 5 μg/mL (33.3 nM) and 4 subsequent five-fold dilutions were prepared setting up concentrations of 33.33 nM, 6.67 nM, 1.33 nM, 267 pM, and 53 pM for each. These were then injected using the Kinject setting for four minutes at 50 μL/minute, with a 900 second dissociation time. Regeneration was then performed with a 12 μL (14.4 second) injection of 100 mM HCl at 50 μL/minute followed by an 18 second buffer injection. Injections were across all flow cells simultaneously and samples were run injected in quadruplicates with blank injections bracketing each set of descending concentration injection groups for each antibody. This means that before the same sample was injected a second time all other concentrations of all antibodies were injected once.
(§3) The data were analyzed using Scrubber2 (BioLogic Software, Campbell Australia) and were double referenced by subtracting both the blank flow cell data and the averaged bracketing blank injections.

Experiment [2] has as its target T2, TGFβ2 (human, UniProt P61812 303-414).
T2 construct: Commercial recombinant protein; also called transforming growth factor beta 2
T2 sequence (looked up): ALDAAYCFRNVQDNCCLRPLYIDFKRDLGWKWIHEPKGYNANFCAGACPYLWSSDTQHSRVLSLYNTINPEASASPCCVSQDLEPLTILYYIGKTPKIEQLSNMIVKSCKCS
The experiment is described as above. Here is the method:
as §1, §2, §3

In experiment [3] the target is T3, TGFβ1 (human, UniProt P01137 279-390).
T3 construct: mature; also called transforming growth factor beta 1
Described as above. Here is the method: as §1, §2, §3

Experiment [4] deals with T1, TGFβ3. Nature of the experiment: SPR (Biacore 2000), antibody immobilised on CM4 chip, TGFβ injected. Here is the method: (§4) A CM4 sensor chip (GE Healthcare) was used on a BIACORE 2000 system (GE Healthcare). The chip was preconditioned with two 30 second injections each at 50 μL/minute flow rate of 100 mM HCl, Glycine pH 2.0, 50 mM NaOH, and running buffer prior to immobilization. Running buffer for immobilization was a HEPES Buffered Saline (HBS-EP+) with 10 mM Hepes, 150 mM Sodium Chloride, 3 mM EDTA, and 0.05% Polysorbate 20 (Teknova). The chip surface was activated with a seven minute injection at 10 μL/minute of a freshly mixed 1:1 solution of 0.1 M N-Hydroxysuccinimide (NHS) and 0.4 M 1-Ethyl-3-(3-dimethylaminopropyl) carbodiimide hydrochloride (EDC). Following the activation injection, 1 ug/mL anti-TGFβ antibody in acetate pH 4.5 was injected at 10 μL/minute for one minute, with injections targeting 120 RU. 8 minutes of 1M Ethanolamine hydrochloride-NaOH pH 8.5 was injected to block the surface. The NHS, EDC, and Ethanolamine used were from the BIACORE Amine Coupling Kit.
(§5) Kinetic Analysis was performed using a running buffer of thoroughly degassed form of the HBS-EP+ buffer above supplemented with 1 mg/mL BSA (Sigma Aldrich, St. Louis Mo.). TGFβ sample injections were performed at 50 μL/minute for four minutes with a 900 second dissociation time. […] Regeneration was then performed with three injections of 30 seconds each of 100 mM HCl in 3 M MgCl₂ followed by a final 30 second blank buffer injection.
(§6) The data were analyzed using Scrubber2 (BioLogic Software, Campbell Australia) and was double referenced by subtracting both the blank flow cell data and the averaged bracketing blank injections. […] TGFβ proteins were injected at the same concentrations as described above at 30 μL/minute.

The target of experiment [5] is T2, TGFβ2. Described as above. The protocol:
as §4, §5, §6

The target in experiment [6] is T3, TGFβ1. The description is as above. The protocol:
as §4, §5, §6

For experiment [7], the target named is T1, TGFβ3. Nature of the experiment: cell-based or functional assay.
Experiment [8] addresses T2, TGFβ2. Kind of experiment: cell-based or functional assay.
Experiment [9] addresses T3, TGFβ1. Nature of the experiment: cell-based or functional assay.
Experiment [10] deals with T1, TGFβ3. Nature of the experiment: SPR competition: 4 nM TGFβ pre-mixed with 133 nM of the row's molecule, injected over immobilised XPA.42.089 (competitor). The protocol: (§7) A CM5 sensor chip (GE Healthcare) was used on a BIACORE 2000 system. The chip was preconditioned with four 30 second injections at 50 uL/minute flow rate of 100 mM HCl prior to immobilization. Running buffer for immobilization was a HEPES Buffered Saline (HBS-EP+) with 10 mM Hepes, 150 mM Sodium Chloride, 3 mM EDTA, and 0.05% Polysorbate 20. The chip surface was activated with a seven minute injection at 10 uL/minute of a freshly mixed 1:1 solution of 0.1 M N-Hydroxysuccinimide (NHS) and 0.4 M 1-Ethyl-3-(3-dimethylaminopropyl) carbodiimide hydrochloride (EDC). […] Injections were monitored and performed sequentially to establish immobilization levels very close to 300 RU. Eight minutes of 1 M Ethanolamine hydrochloride-NaOH pH 8.5 was injected to block the surface. The NHS, EDC, and Ethanolamine used were from the BIACORE Amine Coupling Kit. Fc1 was the activated and deactivated control.
(§8) Competition assays were performed using a running buffer of thoroughly degassed form of the HBS-EP+ buffer above supplemented with 1 mg/mL BSA. […] The TGFβ-RIIb-Fc recombinant receptor (R&D Systems) also was included as a competitor. Samples were allowed to come to equilibrium for 40 minutes at room temperature before the BIACORE run was started. Equilibrated samples were then injected at 30 uL/minute for three minutes over all of the flow cells. Regeneration was performed every cycle with one injection of 50 mM NaOH at 50 uL/minute for 6 seconds (5 μLs) and followed by a thirty second buffer injection. Samples were run in duplicates and analyzed for level of TGFβ bound at the end of the three minutes.

The target of experiment [11] is T2, TGFβ2. The description is as above. The protocol: as §7, §8
Experiment [12] concerns the target T3, TGFβ1. Described as above. The protocol:
as §7, §8

Experiment [13] concerns the target T1, TGFβ3. Kind of experiment: SPR: 4 nM TGFβ without competitor injected over immobilised XPA.42.089 (about 300 RU). The protocol: as §7, §8
In experiment [14] the target is T2, TGFβ2. The description is as above. The protocol: as §7, §8
Experiment [15] addresses T3, TGFβ1. Described as above. Here is the method:
as §7, §8

Experiment [16] deals with T1, TGFβ3. Nature of the experiment: SPR competition: 4 nM TGFβ pre-mixed with 133 nM of the row's molecule, injected over immobilised XPA.42.089 (self competition). The protocol: as §7, §8
In experiment [17] the target is T2, TGFβ2. Described as above. The protocol:
as §7, §8

The target in experiment [18] is T3, TGFβ1. The description is as above. Here is the method:
as §7, §8

B1: XPA.42.681 (antibody, IgG2, V domains shown)
VH: not shown
VL: SYVLTQPPSVSVAPGKTARITCGGNNIGFRSVHWYQQKSGQAPVLVIYFDRARPSGIPERFSASNSENTATLTIRRVEAGDEADYYCQVWDSDSDDLVFGGGTQLTVLG
With B1, the Kd was 0.054 nM in experiment [1]; 0.031 nM in [2]; 0.032 nM in experiment [3]; 0.0057 nM in [4]; 0.0029 nM in experiment [5]; 0.0017 nM in [6]. For the same molecule, the koff came to 0.000665 s⁻¹ in experiment [1]; 0.000394 s⁻¹ in experiment [2]; 0.000363 s⁻¹ in experiment [3]; 7.5e-05 s⁻¹ in [4]; 4.99e-05 s⁻¹ in [5]; 7.2e-05 s⁻¹ in [6]. Further, the kon in experiment [1] is 1.23e+07 M⁻¹ s⁻¹; in experiment [2] it was 1.28e+07 M⁻¹ s⁻¹; in experiment [3], 1.14e+07 M⁻¹ s⁻¹; in experiment [4], 1.3e+07 M⁻¹ s⁻¹; in [5] it was 1.71e+07 M⁻¹ s⁻¹; in experiment [6], 4.25e+07 M⁻¹ s⁻¹. For the same molecule, the “IL-11 Release Assay - IC50 (A549 cells)” value worked out at 0.0008 µg/mL in experiment [7], 0.001 µg/mL in [8] and 0.0004 µg/mL in [9].

B2: XPA.42.068 (antibody, V domains shown)
VH: not shown
VL: SSELTQPPSVSVAPGEKARITCGGNNIGRKSVHWYQQRPGQAPVVVLYYDRVRPSGIPERFSGSNSGNTATLTITRVEAGDEADYFCQVWDNTSEHVVFGGGTQLTVLG
For the molecule B2, the Kd in experiment [1] was 1.3 nM; in experiment [2], 0.109 nM; in experiment [3], 0.313 nM; in experiment [4] it was 0.455 nM; in [5], 0.051 nM; in experiment [6], 0.059 nM. Besides, the koff in experiment [1] came to 0.00696 s⁻¹; in experiment [2] it was 0.000798 s⁻¹; in [3], 0.0017 s⁻¹; in [4], 0.00384 s⁻¹; in experiment [5], 0.000535 s⁻¹; in [6], 0.000905 s⁻¹. The kon was found to be 5.45e+06 M⁻¹ s⁻¹ in experiment [1]; 7.3e+06 M⁻¹ s⁻¹ in [2]; 5.44e+06 M⁻¹ s⁻¹ in experiment [3]; 8.45e+06 M⁻¹ s⁻¹ in [4]; 1.04e+07 M⁻¹ s⁻¹ in experiment [5]; 1.53e+07 M⁻¹ s⁻¹ in experiment [6]. Further, the entries for the “average RU of TGFβ binding” value in experiment [10], in [11] and in experiment [12] were 7.32 RU, 5.18 RU and 10.8 RU, respectively. Moreover, the “IL-11 Release Assay - IC50 (A549 cells)” value in experiment [7] came out at 1.79 µg/mL; in [8], 0.111 µg/mL; in experiment [9], 0.221 µg/mL.

B3: XPA.42.089 (antibody, IgG2, V domains shown)
VH: QVQLVQSGAEVKKPGSSVKVSCKASGGTFSSYAISWVRQAPGQGLEWMGGIIPIFGTANYAQKFQGRVTITADESTSTAYMELSSLRSEDTAVYYCARGLWEVRALPSVYWGQGTLVTVSS
VL: SYELTQPPSVSVAPGQTARITCGANDIGSKSVHWYQQKAGQAPVLVVSEDIIRPSGIPERISGSNSGNTATLTISRVEAGDEADYYCQVWDRDSDQYVFGTGTKVTVLG
Take B3: the “average RU of TGFβ binding” value was determined as 23.6 RU in [13]; 61 RU in [14]; 63.9 RU in experiment [15]; 9.77 RU in experiment [16]; 0.363 RU in experiment [17]; 1.7 RU in [18]. For the same molecule, the Kd in experiment [1] was over 17 nM; in experiment [2] it was 0.29 nM; in experiment [3], 0.177 nM; in experiment [4] it was 1.4 nM; in experiment [5], 0.025 nM; in experiment [6], 0.0038 nM. Moreover, the koff is 0.057 s⁻¹ in experiment [1]; 0.00139 s⁻¹ in experiment [2]; 0.00106 s⁻¹ in experiment [3]; 0.0109 s⁻¹ in experiment [4]; 0.000414 s⁻¹ in [5]; 0.000167 s⁻¹ in [6]. The kon in [1] came to 3.4e+06 M⁻¹ s⁻¹; in experiment [2], 4.8e+06 M⁻¹ s⁻¹; in experiment [3], 5.98e+06 M⁻¹ s⁻¹; in [4], 7.7e+06 M⁻¹ s⁻¹; in experiment [5], 1.62e+07 M⁻¹ s⁻¹; in [6] it was 4.4e+07 M⁻¹ s⁻¹. Also, the “IL-11 Release Assay - IC50 (A549 cells)” value in experiment [8] was determined as 0.058 µg/mL; in experiment [9] it was 0.037 µg/mL.
